Laboratory results reported in patent US7838495B2, “Compositions and methods of use of EPB1, and ErbB3 binding protein” (University of Maryland, Baltimore, priority 2007, dated 2010).

System: AR-regulated genes
Experiment: Validation by real-time RT-PCR, Western blot and ELISA in LNCaP EPB1 transfectants
Type: cell-based, human
Procedure: Real-Time Quantitative Reverse-Transcription PCR: The method of […] et al. (Nakanishi et al., 2003, Quantitative Analysis of Breast Cancer Resistance Protein and Cellular Resistance to Flavopiridol in Acute Leukemia Patients, Clin. Cancer Res., 9: 3320-3328) was used as previously described. […] Real-time quantitative RT-PCR was then performed on the LightCycler (Roche, Indianapolis, Ind.) platform to determine the relative mRNA levels of EPB1, AR, kallikrein-2 and POV-1. The following forward and reverse primers were selected using Primer Express software and synthesized by Core Laboratory of University of Maryland School of Medicine: EPB1, sense: [NT] ID NO: 4) and antisense: [NT] ID NO: 5), sense: [NT] ID NO: 6) and antisense: [NT] ID NO: 7), Kallikrein-2, sense: [NT] ID NO: 8) and antisense: [NT] ID NO: 9), POV-1, sense: [NT] ID NO: 10) and antisense: [NT] ID NO: 11), Actin, sense: [NT] ID NO: 12) and antisense […] ID NO: 13). […] Target mRNA values were normalized using actin mRNA as an internal control. The relative quantitation of gene expression was performed using the comparative ΔΔ Ct (threshold method) using β-actin as an internal control ([…] et al., 2002, The Nonsteroidal Anti-Inflammatory Drug Sulindac Causes Down-Regulation of Signal Transducer and Activator of Transcription 3 in Human Oral Squamous Cell Carcinoma Cells, Cancer Research, 62:1004-1007). Western Blot Analysis: Briefly, total cell extracts were prepared by direct lysis of cells with buffer containing 50 mM Tris-HCl (pH 7.4), 1 mM EDTA, 250 mM NaCl, 1% Triton® X-100, 0.5 mM dithiothreitol (DTT) and 1 mM phenylmethylsulfonyl (PMSF). Protein concentrations were measured using a detergent compatible kit (BioRad, Hercules, Calif.). Proteins were resolved by SDS-PAGE and analyzed by Western blotting as described (Xia et al., 2001, Analysis of the Expression Pattern of EPB1, an ErbB-3-Binding Protein, Biochem. Biophys. Res. Commun., 289:240-244). The AR antibody was from Santa Cruz Biotechnology (Santa Cruz, Calif.), the EPB1 antibody from Upstate (Lake Placid, N.Y.), the polyclonal antibody to actin from Sigma (St. Louis, Mo.), and the POV-1 antibody was a gift. Measurement of PSA levels: Serum PSA levels were determined using a PSA ELISA kit from DSL, Inc (Webster, Tex.). […] Following a 1 h incubation and extensive washing of the plate, the wells were treated for 30 min with a second anti-PSA antibody labeled with horseradish peroxidase. After washing, the wells were treated with a tetramethylbendizine substrate for 10 min, and absorbance was read at 450 nm. The results of the microarray analysis were validated using real-time quantitative reverse-transcription PCR, Western blot, and ELISA methods. […] PSA secretion in the conditioned media of EPB1 and vector control cells was assessed by ELISA.

B1: EBP1: ErbB3 binding protein (SEQ ID NO: 2), AR corepressor, here ectopically expressed in cancer cells by stable transfection of an expression plasmid (protein, listed as Homo sapiens)
chain: MSGEDEQQEQTIAEDLVVTKYKMGGDIANRVLRSLVEASSSGVSVLSLCEKGDAMIMEETGKIFKKEKEMKKGIAFPTSISVNNCVCHFSPLKSDQDYILKEGDLVKIDLGVHVDGFIANVAHTFVVDVAQGTQVTGRKADVIKAAHLCAEAALRLVKPGNQNTQVTEAWNKVAHSFNCTPIEGMLSHQLKQHVIDGEKTIIQNPTDQQKKDHEKAEFEVHEVYAVDVLVSSGEGKAKDAGQRTTIYKRDPSKQYGLKMKTSRAFFSEVERRFDAMPFTLRAFEDEKKARMGVVECAKHELLQPFNVLYEKEGEFVAQFKFTVLLMPNGPMRITSGPFEPDLYKSEMEVQDAELKALLQSSASRKTQKKKKKKASKTAENATSGETLEENEAGD
modifications: FLAG tag
POV-1 mRNA decrease (LNCaP EPB1 transfectants): about two-fold | POV-1 protein decrease (LNCaP EPB1 transfectants): about two-fold | kallikrein-2 mRNA expression decrease (LNCaP EPB1 transfectants): approximately 40% | AR protein decrease (LNCaP EPB1 transfectants, Western blot): more than five-fold | AR mRNA down-regulation (LNCaP EPB1 transfectants, real-time PCR): more than 2 fold | secreted PSA protein downregulation (conditioned media of LNCaP EPB1 transfectants vs controls, ELISA): 10 fold
